In patent US20080219985A1:
Where two headings read alike, the source gives them in different places.

Columns and labels:
Experiment in all cases: cell-based or functional assay
[1] = target: PROK2 receptor on Wky12-22 cells (rat aortic smooth muscle cells) (rat)
[2] = target: GPCR73b receptor (Homo sapiens (Human)) (UniProt Q8NFJ6)
GPCR73a receptor (human) [3] = target: GPCR73a receptor (human) (UniProt Q8TCW9)
[4] = target: GPCR73b receptor (Homo sapiens (Human)) (UniProt Q8NFJ6); remark: listed apart in the source
GPCR73a receptor (human) [5] = target: GPCR73a receptor (human) (UniProt Q8TCW9); remark: listed apart in the source

Sequence of GPCR73a receptor (human) (Q8TCW9 whole entry): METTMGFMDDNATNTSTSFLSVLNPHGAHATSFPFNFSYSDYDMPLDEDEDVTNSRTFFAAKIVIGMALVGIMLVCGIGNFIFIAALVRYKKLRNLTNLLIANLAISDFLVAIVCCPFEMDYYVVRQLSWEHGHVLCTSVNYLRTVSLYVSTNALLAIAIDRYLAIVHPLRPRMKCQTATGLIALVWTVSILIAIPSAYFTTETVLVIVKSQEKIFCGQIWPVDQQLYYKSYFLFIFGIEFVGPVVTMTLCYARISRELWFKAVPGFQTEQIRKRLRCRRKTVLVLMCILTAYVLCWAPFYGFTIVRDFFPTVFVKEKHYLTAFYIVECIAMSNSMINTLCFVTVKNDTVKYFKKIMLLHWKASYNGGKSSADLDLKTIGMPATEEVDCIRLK
Sequence of GPCR73b receptor (Homo sapiens (Human)) (Q8NFJ6 whole entry): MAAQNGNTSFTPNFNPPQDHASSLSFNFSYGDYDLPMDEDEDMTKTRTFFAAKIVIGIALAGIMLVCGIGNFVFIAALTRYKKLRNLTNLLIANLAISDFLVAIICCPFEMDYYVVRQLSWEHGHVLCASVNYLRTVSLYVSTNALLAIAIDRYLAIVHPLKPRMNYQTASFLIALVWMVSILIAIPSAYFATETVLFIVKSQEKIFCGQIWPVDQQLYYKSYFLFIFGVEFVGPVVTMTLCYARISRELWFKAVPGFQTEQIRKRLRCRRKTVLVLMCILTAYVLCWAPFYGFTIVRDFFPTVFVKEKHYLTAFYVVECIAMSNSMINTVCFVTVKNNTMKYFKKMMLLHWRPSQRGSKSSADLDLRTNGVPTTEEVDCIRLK

EC50 of GROα secretion from Wky12-22 cells [1]: 2.94 ng/mL | SRE-luciferase fold-induction at 1 ng/ml (fold-induction) [2]: 1.1 | SRE-luciferase fold-induction at 3.2 ng/ml (fold-induction) [2]: 1.3 | SRE-luciferase fold-induction at 10 ng/ml (fold-induction) [2]: 1.8 | SRE-luciferase fold-induction at 32 ng/ml (fold-induction) [2]: 2.8 | SRE-luciferase fold-induction at 100 ng/ml (fold-induction) [2]: 5.6 | SRE-luciferase fold-induction at 320 ng/ml (fold-induction) [2]: 8.3 | SRE-luciferase fold-induction at 1000 ng/ml (fold-induction) [2]: 8.4 | SRE-luciferase fold-induction at 1 ng/ml (fold-induction) (GPCR73a receptor (human) [3]): 1.2 | SRE-luciferase fold-induction at 3.2 ng/ml (fold-induction) (GPCR73a receptor (human) [3]): 1.6 | SRE-luciferase fold-induction at 10 ng/ml (fold-induction) (GPCR73a receptor (human) [3]): 2.5 | SRE-luciferase fold-induction at 32 ng/ml (fold-induction) (GPCR73a receptor (human) [3]): 5.8 | SRE-luciferase fold-induction at 100 ng/ml (fold-induction) (GPCR73a receptor (human) [3]): 11.4 | SRE-luciferase fold-induction at 320 ng/ml (fold-induction) (GPCR73a receptor (human) [3]): 24.4 | SRE-luciferase fold-induction at 1000 ng/ml (fold-induction) (GPCR73a receptor (human) [3]): 20 | SRE-luciferase fold-induction at 3.2 ng/ml (fold-induction) [4]: 1.4 | SRE-luciferase fold-induction at 32 ng/ml (fold-induction) [4]: 2.7 | SRE-luciferase fold-induction at 100 ng/ml (fold-induction) [4]: 4.1 | SRE-luciferase fold-induction at 320 ng/ml (fold-induction) [4]: 5.8 | SRE-luciferase fold-induction at 1000 ng/ml (fold-induction) [4]: 6.1 | SRE-luciferase fold-induction at 1 ng/ml (fold-induction) (GPCR73a receptor (human) [5]): 0.95 | SRE-luciferase fold-induction at 3.2 ng/ml (fold-induction) (GPCR73a receptor (human) [5]): 1.3 | SRE-luciferase fold-induction at 10 ng/ml (fold-induction) (GPCR73a receptor (human) [5]): 2.6 | SRE-luciferase fold-induction at 32 ng/ml (fold-induction) (GPCR73a receptor (human) [5]): 7.2 | SRE-luciferase fold-induction at 320 ng/ml (fold-induction) (GPCR73a receptor (human) [5]): 20.5 | SRE-luciferase fold-induction at 1000 ng/ml (fold-induction) (GPCR73a receptor (human) [5]): 15
B1: human PROK1 purchased from PeproTech (ligand)
chain: AVITGACERDVQCGAGTCCAISLWLRGLRMCTPLGREGEECHPGSHKVPFFRKRKHHTCPCLPNLLCSRFPDGRYRCSMDLKNINF
